# Results: paper doi:10.1101/2022.02.07.479471 (bioRxiv, 2022)
# Target: SARS-CoV-2 nsp12 (RNA-dependent RNA polymerase with N-terminal NiRAN domain) (SARS-CoV-2, UniProt P0DTD1)
# Assay: cryo-EM structure
binder,measurement,value
SARS-CoV-2 nsp9 with native N-terminus (natural protein) NNELSPVALRQMSCAAGTTQTACTDDNALAYYNTTKGGRFVLALLSDLQDLKWARFPKSDGTGTIYTELEPPCRFVTDTPKGPKVKYLYFIKGLNNLNRGMVLGSLAATVRLQ,binding result,binds
